First the molecules themselves.
B2: Enzyme I (EI), full length (residues 1-575), from E. coli (enzyme)
chain: not shown

The target of series [1] is B2. Kind of series: ITC.
Series [2] has as its target B2. Kind of series: ITC. The source holds these as a separate data set.
The series “AUC” concerns the molecule itself. Kind of series: AUC.

Where two headings read alike, the source gives them in different places.

B1: histidine phosphocarrier protein HPr (natural protein)
chain: not shown
Turning to B1, the Kd (usually the free concentration of one partner at which half of the binding sites on the other are occupied at equilibrium, for simple one-to-one binding) in series [1] came to 6.8 ± 1.8 µM; in series [2], 21 ± 1.1 µM.
For B2, the stoichiometry N (as a rule, the number of molecules, sites or subunits per partner or assembly) in the series “AUC” was found to be 2.

Source of the values: paper PMC2955445 (Journal of the American Chemical Society, 2010).
